Laboratory results from IntAct's records for PubMed 7538907.

B1: Tumor necrosis factor receptor superfamily member 6 (Homo sapiens), P25445 (parent)
chain: MLGIWTLLPLVLTSVARLSSKSVNAQVTDINSKGLELRKTVTTVETQNLEGLHHDGQFCHKPCPPGERKARDCTVNGDEPDCVPCQEGKEYTDKAHFSSKCRRCRLCDEGHGLEVEINCTRTQNTKCRCKPNFFCNSTVCEHCDPCTKCEHGIIKECTLTSNTKCKEEGSRSNLGWLCLLLLPIPLIVWVKRKEVQKTCRKHRKENQGSHESPTLNPETVAINLSDVDLSKYITTIAGVMTLSQVKGFVRKNGVNEAKIDEIKNDNVQDTAEQKVQLLRNWHQLHGKKEAYDTLIKDLKKANLCTLAEKIQTIILKDITSDSENSNFRNEIQSLV
B2: FAS-associated death domain protein (Homo sapiens), Q13158 (parent)
chain: MDPFLVLLHSVSSSLSSSELTELKFLCLGRVGKRKLERVQSGLDLFSMLLEQNDLEPGHTELLRELLASLRRHDLLRRVDDFEAGAAAGAAPGEEDLCAAFNVICDNVGKDWRRLARQLKVSDTKIDSIEDRYPRNLTERVRESLRIWKNTEKENATVAHLVGALRSCQMNLVADLVQEVQQARDLQNRSGAMSPMSWNSDASTSEAS

Variants of: B1
Settings: with fadd_human FADD

Row | Variant | effect of a mutation on the interaction
1 | V254N | decreasing interaction

Variants of: B2
Settings: with tnr6_human FAS

Row | Variant | effect of a mutation on the interaction
2 | V121N | decreasing interaction
